Reference: patent US9958461B2, “Detection of protein to protein interactions” (THE GOVERNING COUNCIL OF THE UNIVERSITY OF TORONTO, priority 2013, dated 2018)

Tests used:
EGFR-L858R = target: T1, EGFR-L858R (Homo sapiens, UniProt P00533, L858R); assay: MaMTH EGFR-interactor screen, lentiviral preys against EGFR-L858R bait (interaction score); assay type: cell-based; conditions: MaMTH interaction score of prey with EGFR-L858R bait
T1 construct: with the advantage of testing full-length integral membrane proteins; (GGGGS)2 linker-Cub (human ubiquitin aa 35-76)-GAL4(1-147)-mNFkB(364-550) (C); expressed in transfected cells
Protocol: (§1) After lentivirus harvest, target cells (stable 5×GAL4UAS-luciferase reporter-HEK293T cells) were infected at a multiplicity of infection (MOI) of around 0.3-0.4 to ensure single copy integration per cell. Cells were selected in puromycin for at least 48 h and transfected with either EGFR-wildtype or EGFR-L858R baits in triplicates. 24 h after transfection, cells were lysed and luciferase assays performed. On each set of interaction assays, various negative controls were included. To calculate a MaMTH-interaction scores, negative controls were averaged and the fold-change of luciferase activity compared to the averaged controls was calculated and defined as the interaction score.
(§2) Each set of experiments contains a defined set of negative controls in at least three replicates. Negative controls were chosen as such that there is a range of controls showing high-background luciferase activity (normally cytosolic proteins: Fabp5, Pex19) as well as medium-background luciferase activity (membrane-bound interactors: Pex7, GABBR2). Negative controls were averaged and the fold-change of luciferase activity was calculated. Using this method, we have a stringent cut-off and chose an interaction score >1 to be interacting proteins.
(§3) Our cut-off of 1 is based on fold-change difference in luciferase activity over averaged negative controls. Negative controls include cytosolic preys (which tend to promiscuously bind to many proteins), plasma membrane- and peroxisomal-prey proteins. In general, we chose stringent conditions by testing preys that tend to have high luciferase background with any bait tested, in order to generate high-confidence interaction data. […] Phosphorylated tyrosine residues on the receptor are typically docking sites for downstream cytoplasmic targets and recognized through SH2 or PTB domains^43.

EGFR-Wt [1] = target: T2, EGFR-Wt (Homo sapiens, UniProt P00533); assay: MaMTH EGFR-interactor screen, lentiviral preys against EGFR-wildtype bait (interaction score); assay type: cell-based; conditions: MaMTH interaction score of prey with EGFR-Wt bait, mean
T2 construct: with the advantage of testing full-length integral membrane proteins; (GGGGS)2 linker-Cub (human ubiquitin aa 35-76)-GAL4(1-147)-mNFkB(364-550) (C); expressed in transfected cells
Protocol: as §1, §2, §3

EGFR-Wt [2] = assay: as above; assay type: cell-based, human; conditions: ratio of EGFR-Wt mean to EGFR-L858R mean interaction score
Protocol: as §1, §2, §3

ErbB4/Shc1 interaction = target: T3, ErbB4/Shc1 interaction (Homo sapiens, UniProt Q15303); assay: MaMTH luciferase reporter assay, ErbB4 bait / Shc1 prey with TKI-PD158780; assay type: cell-based; conditions: presence/absence of TKI-PD158780
T3 construct: with the advantage of testing full-length integral membrane proteins; (GGGGS)2 linker-Cub (human ubiquitin aa 35-76)-transcription factor (GAL4-mNFkB or mLexA-VP16; expressed in transfected cells; HEK293T reporter lines are used throughout)
Protocol: FIG. 7: (a) Graph illustrating relative lucifease activity of serum stimulated PPIs. Stable 5×GAL4UAS-luciferase reporter cell lines were co-transfected with ErbB2 bait and preys. Luciferase activity was measured 24 h following transfection in the absence/presence of serum. […] The plotted values represent relative-luciferase signals calculated as fold-change increase above averaged negative controls. (b) Graph illustrating relative luciferase activity of drug-inhibited protein-protein interactions. Following transfection, ErbB4 interaction with either Shc1 or non-interacting Pex13 was measured in presence/absence of non-specfic TKI-PD158780. Plotted values represent relative luciferase signals calculated as fold-change increase above bait only controls.
We then sought to more specifically focus on the ErbB subfamily of receptor tyrosine kinases (RTK) to investigate ligand-dependent and drug-inhibited interactions. The ErbB family consists of 4 closely related receptors: EGFR, ErbB2, ErbB3, and ErbB4. Elucidation of cell signaling via all four ErbB receptors is of great therapeutic interest since they are frequently found mutated or overexpressed in several cancer. […]

EGFR-ex19del = assay: Western blot of EGFR-ex19del bait phosphorylation after erlotinib (anti-phospho-EGFR); conditions: 0, 250 or 500 nM Erlotinib, 20 h, serum-containing media
Description: (a) Left panel: Relative luciferase activity of stable 5×GAL4UAS-HEK293T luciferase reporter cells co-transfected with various oncogenic ErbB baits and Shc1 prey. […] (b) Luciferase activity of sable 5×GAL4UAS-HEK293T luciferase reporter cells co-transfected with EGFR-Wt, EGFR-L858R or EGFR-D855A-kinase dead baits and Shc1 adaptor prey. (c)-(d) Western Blot showing expression of various receptors using anti-V5 antibodies and phosphor-tyrosine-specific antibodies. […] (h) Western Blot analysis of EGFR-Wt, EGFR-L858R, EGFR-exon19de and EGFR-L858R/T790A baits transfected into stable5×GAL4UAS-luciferase HEK293T reporter cells in serum-containing media.
Western blot analysis was performed using standard protocols. Briefly, cells were either directly harvested in 2×sample buffer or harvested in 1×reporter lysis buffer (Promega) containing protease inhibitors (Complete-EDTA, Roche) and 2×sample buffer was added after freezing the cells at −80° C. For phospho-specific antibodies, cells were lysed in Ripa buffer containing Na-orthovanadate, PMSF and protease inhibitor and 2×SB was added and samples were immediately boiled at 95° C. for 5 min and proceeded for Western Blot analysis. […] Transferred samples were immunoblotted with primary antibodies, followed by incubation with HRP-coupled secondary antibodies, and detection was performed using GE-Healthcare enhanced luminescence. […]

T3 sequence (Q15303 26-1308): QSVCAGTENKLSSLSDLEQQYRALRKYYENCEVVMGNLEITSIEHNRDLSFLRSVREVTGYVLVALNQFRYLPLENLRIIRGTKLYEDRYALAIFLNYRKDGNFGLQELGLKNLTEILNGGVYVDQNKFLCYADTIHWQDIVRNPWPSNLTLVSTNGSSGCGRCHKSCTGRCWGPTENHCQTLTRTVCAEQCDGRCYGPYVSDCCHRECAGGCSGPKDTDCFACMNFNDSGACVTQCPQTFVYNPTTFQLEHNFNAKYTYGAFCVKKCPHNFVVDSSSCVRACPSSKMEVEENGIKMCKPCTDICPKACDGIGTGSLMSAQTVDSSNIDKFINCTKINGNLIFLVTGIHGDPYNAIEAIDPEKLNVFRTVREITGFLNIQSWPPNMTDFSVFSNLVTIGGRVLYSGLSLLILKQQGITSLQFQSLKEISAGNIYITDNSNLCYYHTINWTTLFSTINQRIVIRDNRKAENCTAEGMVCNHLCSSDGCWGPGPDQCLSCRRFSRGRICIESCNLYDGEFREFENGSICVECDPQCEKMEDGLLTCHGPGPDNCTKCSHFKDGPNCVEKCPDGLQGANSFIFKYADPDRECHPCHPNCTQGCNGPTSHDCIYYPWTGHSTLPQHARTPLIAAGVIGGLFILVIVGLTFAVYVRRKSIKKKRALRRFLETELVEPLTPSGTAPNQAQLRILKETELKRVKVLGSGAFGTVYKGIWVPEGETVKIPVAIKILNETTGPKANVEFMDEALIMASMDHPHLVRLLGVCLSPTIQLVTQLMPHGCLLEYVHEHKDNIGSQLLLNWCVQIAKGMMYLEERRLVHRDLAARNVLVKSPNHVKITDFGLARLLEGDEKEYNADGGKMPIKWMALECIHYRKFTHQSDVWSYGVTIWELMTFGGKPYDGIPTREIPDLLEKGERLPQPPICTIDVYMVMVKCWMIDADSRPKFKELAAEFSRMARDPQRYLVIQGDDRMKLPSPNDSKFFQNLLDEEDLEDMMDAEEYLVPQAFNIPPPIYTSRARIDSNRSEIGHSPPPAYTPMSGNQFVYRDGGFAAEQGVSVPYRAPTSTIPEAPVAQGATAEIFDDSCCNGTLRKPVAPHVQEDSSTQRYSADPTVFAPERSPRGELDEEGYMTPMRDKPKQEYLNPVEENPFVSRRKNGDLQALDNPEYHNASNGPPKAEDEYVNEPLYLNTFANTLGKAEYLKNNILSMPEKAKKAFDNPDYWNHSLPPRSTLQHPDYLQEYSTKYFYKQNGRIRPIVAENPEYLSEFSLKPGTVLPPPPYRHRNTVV

EGFR-L858R mean (EGFR-L858R) | EGFR-Wt mean (EGFR-Wt [1]) | Effect on Shc1-adaptor protein binding to ErbB4 (ErbB4/Shc1 interaction) | Molecule | Wt/L858R (EGFR-Wt [2]) | Receptor phosphorylation upon Erlotinib treatment (Western blot) (EGFR-ex19del)
7.04 | 10.28 | – | STUB1 | 1.46 | –
14.90 | 24.86 | – | HDAC6 | 1.67 | –
3.96 | 3.94 | – | HCK | 1.00 | –
1.42 | 1.32 | – | YWHAG | 0.93 | –
5.36 | 2.84 | – | FRK | 0.53 | –
13.94 | 7.58 | – | YWHAZ | 0.54 | –
19.20 | 12.77 | – | HSPA1A | 0.67 | –
0.76 | 1.39 | – | CD3E | 1.83 | –
1.43 | 1.51 | – | PTPN6 | 1.05 | –
1.15 | 0.85 | – | FASLG | 0.74 | –
6.55 | 8.28 | – | IKBKG | 1.26 | –
11.96 | 8.19 | – | YWHAQ | 0.69 | –
10.44 | 7.39 | – | YWHAB | 0.71 | –
– | – | reduced Shc1-adaptor protein binding | CNc1cc2c(Nc3cccc(Br)c3)ncnc2cn1 [TKI-PD158780] | – | –
0.97 | 1.77 | – | ASAP2 | 1.81 | –
55.90 | 44.56 | – | PTPN1 | 0.80 | –
14.70 | 5.60 | – | SFN | 0.38 | –
4.46 | 1.72 | – | S100A4 | 0.39 | –
3.03 | 0.84 | – | STAT2 | 0.28 | –
4.18 | 1.09 | – | MUC1 | 0.26 | –
9.83 | 1.59 | – | SOCS3 | 0.16 | –
3.79 | 3.44 | – | Gapdh | 0.91 | –
14.81 | 27.58 | – | HSP90AB1 | 1.86 | –
2.18 | 0.93 | – | APP | 0.43 | –
3.47 | 7.28 | – | TRAF2 | 2.10 | –
2.83 | 1.48 | – | MAPK9 | 0.52 | –
– | – | – | C#Cc1cccc(Nc2ncnc3cc(OCCOC)c(OCCOC)cc23)c1 [Erlotinib] | – | sensitive to Erlotinib
1.24 | 0.37 | – | CD33 | 0.30 | –

EGFR-L858R mean (EGFR-L858R) | EGFR-Wt mean (EGFR-Wt [1]) | Effect on Shc1-adaptor protein binding to ErbB4 (ErbB4/Shc1 interaction) | Molecule | Wt/L858R (EGFR-Wt [2]) | Receptor phosphorylation upon Erlotinib treatment (Western blot) (EGFR-ex19del)
7.70 | 11.13 | – | PRKCA | 1.45 | –
1.51 | 1.91 | – | PIM1 | 1.27 | –
0.50 | 1.89 | – | ABL1 | 3.76 | –
2.59 | 3.21 | – | NR3C1 | 1.24 | –
1.32 | 1.22 | – | DOK6 | 0.92 | –
3.11 | 4.12 | – | AKT1 | 1.32 | –
– | – | – | Grb2 | 0.28 | –
1.69 | 0.58 | – | TLR2 | 0.34 | –
3.76 | 2.99 | – | SH2B1 | 0.79 | –
3.25 | 1.17 | – | PIK3R2 | 0.36 | –
4.87 | 4.35 | – | NCK2 | 0.89 | –
0.60 | 2.09 | – | ITSN2 | 3.50 | –
5.00 | 8.30 | – | EZR | 1.66 | –
4.99 | 2.62 | – | FGR | 0.52 | –
8.25 | 4.51 | – | BLK | 0.55 | –
2.40 | 1.55 | – | PIK3R3 | 0.64 | –
4.20 | 7.35 | – | STAT3 | 1.75 | –
1.59 | 2.52 | – | TGFA | 1.59 | –
1.27 | 0.97 | – | GAB2 | 0.76 | –
1.76 | 1.51 | – | MAP4K1 | 0.86 | –
1.39 | 0.58 | – | Rgs4 | 0.41 | –
6.57 | 2.72 | – | ARRB1 | 0.41 | –
39.20 | 25.00 | – | HSPA8 | 0.64 | –
1.23 | 1.91 | – | YES1 | 1.55 | –
4.30 | 1.23 | – | PIK3C2B | 0.29 | –
0.83 | 2.62 | – | ITGB2 | 3.16 | –
0.97 | 1.57 | – | NTRK2 | 1.61 | –

Molecule | EGFR-L858R mean (EGFR-L858R) | EGFR-Wt mean (EGFR-Wt [1]) | Effect on Shc1-adaptor protein binding to ErbB4 (ErbB4/Shc1 interaction) | Wt/L858R (EGFR-Wt [2]) | Receptor phosphorylation upon Erlotinib treatment (Western blot) (EGFR-ex19del)
RELA | 1.18 | 1.27 | – | 1.08 | –
Hsp90aa1 | 97.06 | 74.20 | – | 0.76 | –
